Five molecules from patent US9642898B2, “Use of serine protease inhibitors in the treatment of neutropenia” (Med Discovery S.A., priority 2009, dated 2017) can be followed below.

Test [1] concerns neutrophils. Description: Annexin-V staining / FACS analysis of neutrophil apoptosis in vitro. The test is classed as cell-based, human. As for the experimental part:
(§1) To assess viability of neutrophils in-vitro, peripheral blood from healthy donors was erythrocyte-lyzed and neutrophils or peripheral blood mononuclear cells (PBMCs) were isolated. Cultures in RPMI10%FCS were performed in 96 well microtiter plates (5×10^5cells/well) unless otherwise stated. The percentage of apoptotic neutrophils or PBMCs was assessed based on binding of fluorescent Annexin V-protein binding or measuring of CD11b or CD16 surface expression by FACS (fluorescent activated cell sorter) analysis.
(§2) Cells were incubated for 24 or 48 hours with MDPK67b at concentrations ranging from 6 μM to 60 μM, as indicated, or PBS as control. Apoptosis was assessed by Annexin V staining and FACS analysis. Indicated leukocyte populations were gated based on their appearance in a forward scatter/sideward scatter FACS dot plot (neutrophils) or by positive staining for CD3 (T cells).
Neutrophils were incubated for 18 hours with MDPK67b or MDOKG9 concentrations ranging from 60 μM (dilution 1) to […] as indicated. Apoptosis was assessed as outlined above.
Neutrophils were cultured with the indicated concentrations of MDPK67b. PBS without MDPK67b served as a control. Neutrophils were plated (100 μl/well) either at 5×10^6/ml (high density) or 3×10^5/ml (low density) and neutrophil apoptosis was assessed by AnnexinV staining and FACS analysis. Culturing of 5×10^6/ml neutrophils in serum free medium (X-Vivo 15) instead of RPMI10% FCS was assessed in parallel.
(§3) Neutrophils were cultured with the indicated concentrations of MDPK67b in presence or absence of the Src tyrosine kinase inhibitor PP2 (final concentration 10 μM). Apoptosis and relative frequencies of CD11b and CD16 high expressing neutrophils were measured by FACS analysis.
Neutrophils were cultured with the indicated concentrations of G-CSF and neutrophil Apoptosis (FIG. 6A) and down-regulation of CD 16 expression (FIG. 6B) were analyzed by FACS. FIG. 6C: Neutrophils were cultured with MDPK67b (0.6 μM) and titrated amounts of G-CSF (concentrations as indicated). Neutrophils cultured in medium and PBS (without MDPK67b) served as a control.
Cells were incubated during 18 hours with MDPK67b (6 μM) plus Etoposid (125 μg/ml), Etoposid alone or PBS. Apoptosis was assessed by Annexin V staining and FACS analysis. Relevant leukocyte populations were gated based on their appearance in a forward scatter or sideward scatter FACS dot plot.
Cells were incubated for 18 hours with MDPK67b (0.06 μM) alone or MDPK67b (0.06 μM) plus increasing concentrations of Etopsid (in μg/ml) as indicated or PBS. Apoptosis was assessed by Annexin V staining and FACS analysis was performed as mentioned above.

For test [2], the system named is neutrophils. Description: CD16 / CD11b surface expression of cultured neutrophils by FACS. The test is classed as cell-based, human. Here is the method:
as §1
Neutrophils were cultured with the indicated concentrations of MDPK67b and percentage of neutrophils expressing high levels of CD16 or CD11b was assessed by FACS. Representative FACS plots are shown.
as §3

Test [3] addresses hK2 (Homo sapiens, UniProt P20151). Briefly: Inhibition of kallikrein hK2 by chimeric serpin. The test is classed as biochemical. From the text: These chimeric inhibitor proteins have been obtained by modifying the RSL of α1-antichymotrypsin (rACT), which is known to inhibit a large panel of human enzymes such as chymotrypsin, mast cell chymase , cathepsin G , prostatic kallikreins hK2 and PSA (hK3), in order to change the specificity of this serpin. Peptide sequences, selected as substrates for the enzyme hK2 by phage display technology as explained in International Patent Application PCT/IB2004/001040, have been used to replace the scissile bond and neighbor amino acid residues of the RSL. Recombinant inhibitors were produced in bacteria and purified by affinity chromatography.

Test [4] concerns the target hK3 (Homo sapiens, UniProt P07288). Description: Inhibition of kallikrein hK3 by chimeric serpin. The test is classed as biochemical.
The test system of test [5] is neutrophils. Description: Annexin-V staining / FACS analysis of neutrophil apoptosis in vitro. It counts as cell-based, human. Conditions: doses ranging from 60 μM down to 0.6 μM; 18, 24 or 48 hours; PBS control. In general terms: Flow cytometry measures light scatter and fluorescence of single cells or particles in a stream.
Test [6] has as its system monocytes or lymphocytes. Briefly: Annexin-V staining / FACS analysis of monocytes or lymphocytes (PBMCs). It counts as cell-based, human. Here is the method:
as §1, §2

The subject of test [7] is T cells. Briefly: Annexin-V staining / FACS analysis of T cells (CD3 positive). The test is classed as cell-based, human. Conditions: 24 or 48 hours. As for the experimental part: as §1, §2
Where [8] appears, read: neutrophils cultured with MDPK67b plus kinase inhibitor (PP2 final concentration 10 μM).

hK3, sequence (P07288 25-261): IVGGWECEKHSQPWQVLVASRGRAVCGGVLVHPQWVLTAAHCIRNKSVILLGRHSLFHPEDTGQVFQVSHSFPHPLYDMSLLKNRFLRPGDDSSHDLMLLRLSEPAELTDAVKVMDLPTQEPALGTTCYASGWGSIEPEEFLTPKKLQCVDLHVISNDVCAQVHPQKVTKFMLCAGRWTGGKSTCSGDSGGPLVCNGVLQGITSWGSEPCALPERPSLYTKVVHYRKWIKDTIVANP
hK2, sequence (P20151 25-261): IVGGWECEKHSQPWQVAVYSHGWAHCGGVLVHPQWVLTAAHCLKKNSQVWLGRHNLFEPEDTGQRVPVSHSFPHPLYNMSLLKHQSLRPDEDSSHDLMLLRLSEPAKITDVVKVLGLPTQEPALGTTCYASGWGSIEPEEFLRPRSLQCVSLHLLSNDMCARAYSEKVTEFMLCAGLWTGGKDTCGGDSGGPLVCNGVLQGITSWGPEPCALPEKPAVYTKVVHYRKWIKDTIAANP

As to `CC(C)(C)n1nc(-c2ccc(Cl)cc2)c2c(N)ncnc21` [PP2, reference compound], the “reversal of the decreased apoptosis in the presence of MDPK67b by kinase inhibitor” value in test [1] (setting [8]) is reported as “can be reversed”. The “reversal of the increased frequency of CD11b high expressing neutrophils in the presence of MDPK67b by kinase inhibitor” value in test [2] (setting [8]) is recorded as “can be reversed”.

For the molecule `COc1cc([C@@H]2c3cc4c(cc3[C@@H](O[C@@H]3O[C@@H]5CO[C@@H](C)O[C@H]5[C@H](O)[C@H]3O)[C@H]3COC(=O)[C@H]23)OCO4)cc(OC)c1O` [Etoposid, reference compound], the “block of the apoptosis reducing effect of MDPK67b” value in test [1] (Etoposid up to 125 μg/ml, 18 hours) was “only partially block”.

B1: MDCI: chimeric inhibitor: P3-P3′ of rACTWT RSL replaced by RSL of Protein C inhibitor; SEQ ID No 14 (protein)
chain: MRGSHHHHHHSRHPNSPLDEENLTQENQDRGTHVDLGLASANVDFAFSLYKQLVLKAPDKNVIFSPLSISTALAFLSLGAHNTTLTEILKGLKFNLTETSEAEIHQSFQHLLRTLNQSSDELQLSMGNAMFVKEQLSLLDRFTEDAKRLYGSEAFATDFQDSAAAKKLINDYVKNGTRGKITDLIKDLDSQTMMVLVNYIFFKAKWEMPFDPQDTHQSRFYLSKKKWVMVPMMSLHHLTIPYFRDEELSCTVVELKYTGNASALFILPDQDKMEEVEAMLLPETLKRWRDSLEFREIGELYLPKFSISRDYNLNDILLQLGIEEAFTSKADLSGITGARNLAVSQVVHKAVLDVFEEGTEASAATAVKITFRSALVETRTIVRFNRPFLMIIVPTDTQNIFFMSKVTNPKQA
Take B1: the “inhibition of kallikrein hK2” value in test [3] was “able to inhibit”. Moreover, the “inhibition of kallikrein hK3” value in test [4] is given as “able to inhibit”.

B2: MDPK67b: chimeric inhibitor protein specific for hK2, modified RSL of α1-antichymotrypsin; amino acid sequence SEQ ID NO 16 (protein)
chain: MHPNSPLDEENLTQENQDRGTHVDLGLASANVDFAFSLYKQLVLKAPDKNVIFSPLSISTALAFLSLGAHNTTLTEILKGLKFNLTETSEAEIHQSFQHLLRTLNQSSDELQLSMGNAMFVKEQLSLLDRFTEDAKRLYGSEAFATDFQDSAAAKKLINDYVKNGTRGKITDLIKDLDSQTMMVLVNYIFFKAKWEMPFDPQDTHQSRFYLSKKKWVMVPMMSLHHLTIPYFRDEELSCTVVELKYTGNASALFILPDQDKMEEVEAMLLPETLKRWRDSLEFREIGELYLPKFSISRDYNLNDILLQLGIEEAFTSKADLSGITGARNLAVSQVVHKAVLDVFEEGTEASAATAVKIKLRTTLVETRTIVRFNRPFLMIIVPTDTQNIFFMSKVTNPKQA
In the case of B2, in test [5], the “apoptosis of neutrophils (Annexin V staining)” value is “inhibit apoptosis of neutrophils”. Also, in test [1], the “protection of neutrophils from apoptosis compared to G-CSF” value is reported as “Superior Effect”. In test [1] (5×10^6/ml (high density) or 3×10^5/ml (low density), RPMI10% FCS or serum free medium (X-Vivo 15)), the “apoptosis of neutrophils under various culture conditions” value was “inhibits apoptosis of neutrophils in vitro independently of cell density and presence or absence of serum”. Also, in test [1] (18 hours, MDPK67b (6 μM or 0.06 μM) plus Etoposid), the “cytostatic drug-induced apoptosis of neutrophils” value is “Reduces Cytostatic Drug-induced Apoptosis of Neutrophils”. The “effect of MDPK67b on neutrophil apoptosis in presence of G-CSF” value in test [1] (MDPK67b (0.6 μM) and titrated amounts of G-CSF) is recorded as “not affected by G-CSF”. Moreover, the “apoptosis of monocytes or lymphocytes” value in test [6] is recorded as “did not inhibit apoptosis of monocytes or lymphocytes”. Further, the “frequency of neutrophils that express CD16 and CD11b at high levels” value in test [2] (indicated concentrations of MDPK67b) is recorded as “increases dose-dependently”. Further, in test [7], the “T-cell survival (Annexin V staining)” value is recorded as “No Significant Effect on T-cell Survival”.

B3: G-CSF (protein, UniProt P09919 31-207, looked up)
Granulocyte …: TPLGPASSLPQSFLLKCLEQVRKIQGDGAALQEKLVSECATYKLCHPEELVLLGHSLGIPWAPLSSCPSQALQLAGCLSQLHSGLFLYQGLLQALEGISPELGPTLDTLQLDVADFATTIWQQMEELGMAPALQPTQGAMPAFASAFQRRAGGVLVASHLQSFLEVSYRVLRHLAQP
notes: present agent used for the treatment of neutropenia
B3: the “effect on neutrophil apoptosis, alone” value in test [1] (G-CSF alone, indicated concentrations) is “only a mild protecting effect”.
